The results in this text go back to paper PMC9105409 (2022).

The Ki is the equilibrium dissociation constant of an inhibitor or competing ligand from its target. A high value points to weaker binding.

The target in one assay is T1, Recombinant CYP26A1 (UniProt O43174).
T1 sequence: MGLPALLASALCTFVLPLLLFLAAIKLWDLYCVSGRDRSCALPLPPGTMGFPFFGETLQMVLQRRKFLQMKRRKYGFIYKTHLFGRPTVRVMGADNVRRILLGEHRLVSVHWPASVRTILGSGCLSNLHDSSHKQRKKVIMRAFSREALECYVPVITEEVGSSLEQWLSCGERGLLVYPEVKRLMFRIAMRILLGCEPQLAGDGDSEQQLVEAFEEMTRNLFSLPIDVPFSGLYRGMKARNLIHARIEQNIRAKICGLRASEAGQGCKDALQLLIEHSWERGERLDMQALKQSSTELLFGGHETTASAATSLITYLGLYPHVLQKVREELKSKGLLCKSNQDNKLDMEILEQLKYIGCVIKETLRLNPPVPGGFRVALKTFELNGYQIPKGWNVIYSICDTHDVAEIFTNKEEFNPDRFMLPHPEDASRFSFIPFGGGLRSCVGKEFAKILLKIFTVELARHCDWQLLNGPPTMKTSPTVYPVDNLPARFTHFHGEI

The next assay addresses T2, CYP26A1 (Homo sapiens, UniProt O43174).
T2 chain: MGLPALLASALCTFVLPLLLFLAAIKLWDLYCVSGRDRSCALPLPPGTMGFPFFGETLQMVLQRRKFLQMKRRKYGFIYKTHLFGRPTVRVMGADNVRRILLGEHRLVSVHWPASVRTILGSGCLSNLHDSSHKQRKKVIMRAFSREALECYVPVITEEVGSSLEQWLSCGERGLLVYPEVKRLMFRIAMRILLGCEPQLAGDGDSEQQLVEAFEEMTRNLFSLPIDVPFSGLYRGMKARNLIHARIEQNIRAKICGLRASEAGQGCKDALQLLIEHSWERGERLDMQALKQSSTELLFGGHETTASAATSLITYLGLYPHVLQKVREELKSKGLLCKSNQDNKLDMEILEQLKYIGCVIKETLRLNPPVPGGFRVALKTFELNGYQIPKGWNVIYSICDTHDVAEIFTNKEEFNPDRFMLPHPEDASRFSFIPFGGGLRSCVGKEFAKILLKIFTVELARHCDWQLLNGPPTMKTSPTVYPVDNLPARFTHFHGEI
Put plainly: enzyme inhibition kinetics.

Turning to “Cellular retinoic acid binding protein 1 (CRABP1) (from UniProt P29762 1-137) (natural protein)”, the αKm (affinity of holo-CRABP1, with atRA bound, for CYP26A1), from a global fit of the protein-protein interaction model (Equation 3) to 4-OH-atRA formation velocities with Recombinant CYP26A1 is 0.99 nM.

B1: CRABP2 (protein)
chain: MPNFSGNWKIIRSENFEELLKVLGVNVMLRKIAVAAASKPAVEIKQEGDTFYIKTSTTVRTTEINFKVGEEFEEQTVDGRPCKSLVKWESENKMVCEQKLLKGEGPKTSWTRELTNDGELILTMTADDVVCTRVYVRE
As to B1, the αKm (affinity of holo-CRABP2, with atRA bound, for CYP26A1), from a global fit of the protein-protein interaction model (Equation 3) to 4-OH-atRA formation velocities with Recombinant CYP26A1 is 0.75 nM. Besides, the Ki in the assay with CYP26A1 came to 0.53 nM.
